Assay results: patent US20070254831A1 (published 2007)
Bridge positions count the residues as written; N and C are the ends. Ends that are not written are not given here.

How the values were obtained:
[1] = molecular target: T1, soluble human FcRn (human, UniProt P55899 24-297; P61769 21-119, biotinylated (Sulfo-NHS-LC-Biotin) in the ELISA; amine-coupled to CM5 chip in SPR); test: SPR, pH 7.4
T1 construct: also called shFcRn; biotinylated shFcRn
Description: (§1) The following steps were performed to cross-link soluble human or cynomolgus FcRn to the dextran surface of a CM5 sensor chip (Biacore AB, Uppsala, Sweden) by an amine coupling reaction involving 1-ethyl-(3-dimethylaminopropyl)-carbodiimide hydrochloride (EDC) (Biacore AB, Uppsala, Sweden) and N-hydroxysuccinimide (NHS) (Biacore AB, Uppsala, Sweden) as recommended by Biacore (BIAapplications Handbook, version AB, section 4.2, Biacore AB, Uppsala, Sweden). […] Residual sites on the FcRn flow cell were blocked with 1 M ethanolamine hydrochloride pH 8.5 (Biacore AB, Uppsala, Sweden). A control flow cell was blocked with ethanolamine for reference subtraction. For analysis of the monomeric peptides, FcRn was coated to a final density of 4000-5000 response units (RU). For analysis of the peptide dimers, FcRn was coated to a density of 2000-2500 RU. All SPR measurements were performed using a BIACORE 3000 Instrument (Biacore AB Uppsala, Sweden). For measurements done at either pH 6 or pH 7.4, experiments were performed in 50 mM phosphate, 100 mM sodium chloride, 0.01% surfactant P20 (Biacore AB, Uppsala, Sweden).
(§2) Ten, 2-fold dilutions of the peptide were injected over the FcRn-CM5 chip at a rate of 20 μl/min for 2 min. The peptide was dissociated from the chip for 2.5 minutes with buffer. Any remaining peptide was removed from the chip with a 30 second injection of HBS-P buffer (Biacore AB, Uppsala, Sweden) at a rate of 30 μl/min. Sensorgrams were generated and analyzed using BiaEval software version 3.1 (Biacore AB, Uppsala, Sweden). The equilibrium RU observed for each injection was plotted against concentration. The equilibrium KD values were derived by analysis of the plots using the steady state affinity model included in the BiaEval software.

[2] = molecular target: T1, soluble human FcRn; test: SPR, pH 7.4; remark: listed apart in the source
Description: as §1, §2

[3] = molecular target: T1, soluble human FcRn; test: SPR, pH 6
Description: as §1, §2

[4] = molecular target: T1, soluble human FcRn; test: SPR, pH 6; remark: listed apart in the source
Description: as §1
(§3) Ten, 2-fold dilutions of the peptide were injected over the FcRn-CM5 chip at a rate of 20 μl/min for 2 min. The peptide was dissociated from the chip for 2.5 minutes with buffer. […] Sensorgrams were generated and analyzed using BiaEval software version 3.1 (Biacore AB, Uppsala, Sweden). […]

[5] = molecular target: T1, soluble human FcRn; test: SPR, pH 7.4; remark: listed apart in the source
Description: as §1, §2

[6] = molecular target: T1, soluble human FcRn; test: SPR, pH 7.4; remark: listed apart in the source
Description: as §1, §2

[7] = molecular target: T1, soluble human FcRn; test: SPR, pH 7.4; remark: listed apart in the source
Description: as §1, §2

[8] = molecular target: T1, soluble human FcRn; test: SPR, pH 6; remark: listed apart in the source
Description: as §1, §2

[9] = molecular target: T1, soluble human FcRn; test: SPR, pH 7.4; remark: listed apart in the source
Description: as §1, §3

[10] = molecular target: T1, soluble human FcRn; test: SPR, pH 7.4; remark: listed apart in the source
Description: as §1, §3

[11] = molecular target: T1, soluble human FcRn; test: SPR, pH 6; remark: listed apart in the source
Description: as §1, §2

[12] = molecular target: T1, soluble human FcRn; test: SPR, pH 7.4; remark: listed apart in the source
Description: as §1, §3

[13] = molecular target: T1, soluble human FcRn; test: SPR, pH 6; remark: listed apart in the source
Description: as §1, §2

[14] = molecular target: T1, soluble human FcRn; test: SPR, pH 6; remark: listed apart in the source
Description: as §1, §2

[15] = molecular target: T1, soluble human FcRn; test: SPR, pH 6; remark: listed apart in the source
Description: as §1, §2

[16] = molecular target: T1, soluble human FcRn; test: SPR, pH 6; remark: listed apart in the source
Description: as §1, §2

[17] = molecular target: T1, soluble human FcRn; test: SPR, pH 6; remark: listed apart in the source
Description: as §1, §3

[18] = molecular target: T1, soluble human FcRn; test: SPR, pH 6; remark: listed apart in the source
Description: as §1, §2

[19] = molecular target: T1, soluble human FcRn; test: ELISA, competitor human IgG
Description: (§4) The wells were coated with 100 μl/well of 1 μg/ml biotinylated-shFcRn in Buffer A. The plate was sealed and incubated at 37° C. for 2 hours. Afterwards, the plate washed with 200 μl/well of Buffer B (Buffer B: 100 mM MES pH 6, 150 mM NaCl, 0.5% BSA IgG-free (Jackson ImmunoResearch, West Grove, Pa.), 0.05% Tween-20). […] To allow for mixing, the plate was rocked for 2 minutes, sealed and incubated at 37° C. for 2 hours. […] The plate was covered, incubated for 30 minutes at room temperature and washed 4 times with 200 μl/well of ice-cold buffer B. SureBlue TMB substrate solution (100 μl/well, KPL, Gaithersburg, Md.) was added and the plate was allowed to incubate at room temperature until color developed, which took 5 to 10 minutes. Once color developed, 100 μl/well of TMB stop solution (KPL, Gaithersburg, Md.) was added and the absorbance was measured at 450 nm. The data was plotted as absorbance vs. peptide concentration to derive the inhibitory concentration 50% (IC₅₀) values.

[20] = molecular target: T1, soluble human FcRn; test: ELISA, competitor human IgG; remark: listed apart in the source
Description: as §4

[21] = molecular target: T1, soluble human FcRn; test: ELISA, competitor human IgG; remark: listed apart in the source
Description: as §4

[22] = molecular target: T1, soluble human FcRn; test: ELISA, competitor human IgG; remark: listed apart in the source
Description: as §4

[23] = molecular target: T1, soluble human FcRn; test: ELISA, competitor human IgG; remark: listed apart in the source
Description: as §4

[24] = molecular target: T1, soluble human FcRn; test: SPR, pH 6; remark: listed apart in the source
Description: as §1, §2

[25] = molecular target: T1, soluble human FcRn; test: SPR, pH 6; remark: listed apart in the source
Description: as §1, §3

[26] = molecular target: T1, soluble human FcRn; test: ELISA, competitor human IgG; remark: listed apart in the source
Description: as §4

[27] = molecular target: T1, soluble human FcRn; test: ELISA, competitor human IgG; remark: listed apart in the source
Description: as §4

[28] = molecular target: T1, soluble human FcRn; test: ELISA, competitor human IgG; remark: listed apart in the source
Description: as §4

[29] = molecular target: T1, soluble human FcRn; test: ELISA, competitor human IgG; remark: listed apart in the source
Description: as §4

[30] = molecular target: T1, soluble human FcRn; test: SPR, pH 6; remark: listed apart in the source
Description: as §1, §2

[31] = molecular target: T1, soluble human FcRn; test: SPR, pH 6; remark: listed apart in the source
Description: as §1, §2

[32] = molecular target: T1, soluble human FcRn; test: ELISA, competitor human IgG; remark: listed apart in the source
Description: as §4

[33] = molecular target: T1, soluble human FcRn; test: ELISA, competitor human IgG; remark: listed apart in the source
Description: as §4

[34] = molecular target: T1, soluble human FcRn; test: SPR, pH 6; remark: listed apart in the source
Description: as §1, §3

[35] = molecular target: T1, soluble human FcRn; test: assay not named for Table 26, taken as the IgG competition ELISA

T1 sequence (P55899 24-297 limits assumed, chain 1 of 2): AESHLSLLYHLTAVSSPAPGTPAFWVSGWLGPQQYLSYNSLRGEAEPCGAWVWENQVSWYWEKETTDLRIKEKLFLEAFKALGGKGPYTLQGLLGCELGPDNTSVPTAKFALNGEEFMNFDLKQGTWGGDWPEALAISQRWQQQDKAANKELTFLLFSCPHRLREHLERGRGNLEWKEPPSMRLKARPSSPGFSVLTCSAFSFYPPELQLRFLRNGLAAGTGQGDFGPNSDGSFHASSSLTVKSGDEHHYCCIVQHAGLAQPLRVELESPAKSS
T1 sequence (P61769 21-119 limits assumed, chain 2 of 2): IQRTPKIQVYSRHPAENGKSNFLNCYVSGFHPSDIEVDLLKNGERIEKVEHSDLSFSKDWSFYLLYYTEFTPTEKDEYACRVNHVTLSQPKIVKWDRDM

B1: SEQ ID NO:1 (peptide)
peptide: QRFCTGHFGGLYPCNGP-NH2
modifications: disulfide 4-14 (inferred)
In the case of B1, the Kd [1] is reported as 30000 nM, the Kd [2] is reported as 30000 nM and the Kd [3] is reported as 5100 nM. It also gave a Kd [4] of 5100 nM, a Kd [5] of 30000 nM and a Kd [6] of 30000 nM. It also gave a Kd [7] of 30000 nM, a Kd [8] of 5100 nM and a Kd [9] of 30000 nM. It also gave a Kd [10] of 30000 nM, a Kd [11] of 5100 nM and a Kd [12] of 30000 nM. It also gave a Kd [13] of 5100 nM, a Kd [14] of 5100 nM and a Kd [15] of 5100 nM. For the same binder, the Kd [16] was 5100 nM.

B2: Peptide No. 32 (peptide)
peptide: QRFXTGHFGGLYPCNGP
modifications: Pen (L-penicillamine) at 4; disulfide; C-terminal amide
B2 showed a Kd [17] of 250 nM, a Kd [18] of 250 nM and an IC50 [19] of 2000 nM. For the same binder, the IC50 [20] was 2000 nM, the IC50 [21] was 2000 nM and the IC50 [22] was 2000 nM. For the same binder, the IC50 [23] was 2000 nM, the Kd [24] was 250 nM and the Kd [25] was 250 nM. For the same binder, the IC50 [26] was 2000 nM, the IC50 [27] was 2000 nM and the IC50 [28] was 2000 nM. For the same binder, the IC50 [29] was 2000 nM, the Kd [30] was 250 nM and the Kd [31] was 250 nM. The IC50 [32] was 2000 nM, the Kd [11] was 250 nM and the IC50 [33] was 2000 nM. The Kd [14] was 250 nM, the Kd [15] was 250 nM and the Kd [16] was 250 nM. The Kd [34] was 250 nM.

B3: Peptide No. 289 (peptide)
peptide: RFXTGHFGGLYPC
modifications: not fully specified; Pen at 3; Sar at 9; NMeLeu at 10; intrachain disulfide; C-terminal amide; N-termini joined by an Asp linker that carries PEG 30 kDa
notes: structure only as drawing CHEM-US-00138; also called Pegylated Analog of Peptide No. 285
B3 showed an IC50 [35] of 18 nM.
